Measurements reported in article PMC6561935, “Hsp90 middle domain phosphorylation initiates a complex conformational program to recruit the ATPase-stimulating cochaperone Aha1” (Nature Communications, 2019).

Tests used:
[1] = biological target: Hsp90-H210A (human) (UniProt P07900); experiment: ITC; 20 mM Tris pH 7.5, 5 mM NaCl, 1 mM EDTA, 30 °C; Hsp90 listed as protein, hAha1 as ligand; at least 3 experiments
[2] = biological target: purified Hsp90-H210A (human) (UniProt P07900); experiment: ITC; Supplementary Table 2, obtained separately: 20 mM Tris pH 7.5, 5 mM NaCl, 1 mM EDTA, 30 °C

Row | Substance | Kd [1] [µM] | stoichiometry N [1] | fold increase of Kd against wild-type Hsp90 [2] [fold]
1 | Human Aha1 (wild-type, full-length) (from UniProt O95433 1-338) (natural protein) | 14.6 | 0.37 | –
2 | purified full-length Aha1 (from UniProt O95433 1-338) (natural protein) | – | – | 2
